In patent US20240026024A1 (SHANGHAI HUAOTA BIOPHARMACEUTICAL, published 2024):
Changes are numbered by the printed parent chain.

Legend:
[1] = target: T1, human CD73 protein (ACRO Biosystems, Cat No. CD3-H52H7) (human, UniProt P21589 27-547); test: cell-based or functional assay
T1 sequence: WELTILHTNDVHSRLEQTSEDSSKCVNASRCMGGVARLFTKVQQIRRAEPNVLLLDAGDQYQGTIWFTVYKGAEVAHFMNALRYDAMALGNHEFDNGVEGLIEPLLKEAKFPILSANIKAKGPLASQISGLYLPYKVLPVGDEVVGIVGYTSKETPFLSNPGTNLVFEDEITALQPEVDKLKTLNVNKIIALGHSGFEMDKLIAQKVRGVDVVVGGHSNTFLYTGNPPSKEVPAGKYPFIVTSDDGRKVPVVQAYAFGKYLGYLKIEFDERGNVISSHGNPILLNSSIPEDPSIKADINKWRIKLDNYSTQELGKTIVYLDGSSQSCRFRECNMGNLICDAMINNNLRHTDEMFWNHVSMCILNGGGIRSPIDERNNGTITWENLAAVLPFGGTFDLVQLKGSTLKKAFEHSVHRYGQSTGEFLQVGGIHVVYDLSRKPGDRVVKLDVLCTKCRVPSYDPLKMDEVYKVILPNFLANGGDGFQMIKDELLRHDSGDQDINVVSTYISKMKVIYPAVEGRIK

[2] = target: T2, mouse CD73/NT5E (ACRO Biosystems, Cat No. CD3-M52H9) (mouse, UniProt Q61503 29-551); test: SPR (Biacore T200), antibody captured on protein A chip
T2 construct: Bought protein
T2 sequence (looked up): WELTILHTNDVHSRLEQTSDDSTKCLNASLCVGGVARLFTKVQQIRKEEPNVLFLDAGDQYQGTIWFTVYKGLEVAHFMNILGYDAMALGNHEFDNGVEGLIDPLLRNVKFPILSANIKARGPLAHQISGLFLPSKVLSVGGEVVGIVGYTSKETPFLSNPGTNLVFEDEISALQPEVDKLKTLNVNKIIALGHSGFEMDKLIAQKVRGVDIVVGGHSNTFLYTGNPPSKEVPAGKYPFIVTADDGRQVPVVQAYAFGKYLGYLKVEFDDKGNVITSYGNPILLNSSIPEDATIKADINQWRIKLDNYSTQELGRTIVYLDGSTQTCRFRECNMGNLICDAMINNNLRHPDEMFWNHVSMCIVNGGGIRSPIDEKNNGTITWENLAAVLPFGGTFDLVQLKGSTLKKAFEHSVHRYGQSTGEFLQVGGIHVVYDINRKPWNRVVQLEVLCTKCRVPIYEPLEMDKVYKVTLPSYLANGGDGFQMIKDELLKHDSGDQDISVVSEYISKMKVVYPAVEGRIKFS
Procedure: (§1) The temperatures of the sample chamber and flow path were set at 25° C. The protein A chips separately captured the antigen-binding proteins as ligands, which were immobilized at about 100 RU. […] Ten mM Glycine, pH 1.5, was regenerated for 60 s at a flow rate of […] for multiple cycle kinetic detection. The binding rate constant (ka), dissociation rate constant (kd) and dissociation equilibrium rate constant (KD) were fitted using the Fit local mode of a 1:1 binding model.

[3] = target: T3, human CD73 on the cell surface (human, UniProt P21589 27-549); test: flow cytometry on CHOK1-huCD73-3F4 cells, PE anti-human Fc
T3 construct: also called CHOK1-huCD73-3F4 cells; human CD73-expressing cells
T3 sequence: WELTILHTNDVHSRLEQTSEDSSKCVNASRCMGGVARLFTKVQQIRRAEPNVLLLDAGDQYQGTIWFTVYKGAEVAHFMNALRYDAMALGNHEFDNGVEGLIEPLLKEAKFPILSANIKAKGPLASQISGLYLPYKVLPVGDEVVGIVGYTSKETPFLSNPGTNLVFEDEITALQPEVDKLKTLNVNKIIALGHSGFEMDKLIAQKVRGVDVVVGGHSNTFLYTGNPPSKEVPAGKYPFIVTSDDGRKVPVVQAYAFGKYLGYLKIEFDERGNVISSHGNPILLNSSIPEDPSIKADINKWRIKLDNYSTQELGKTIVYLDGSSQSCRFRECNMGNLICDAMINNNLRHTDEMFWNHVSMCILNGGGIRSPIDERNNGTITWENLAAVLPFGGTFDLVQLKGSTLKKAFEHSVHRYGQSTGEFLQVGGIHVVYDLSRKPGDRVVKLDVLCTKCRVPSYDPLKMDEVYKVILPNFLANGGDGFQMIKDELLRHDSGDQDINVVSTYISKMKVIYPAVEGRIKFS
Procedure: All the antigen-binding proteins were diluted to 30 μg/ml with PBS solution containing 1% BSA (1% BSA/PBS), diluted at 3-fold into 11 gradients and then added to a 96-well U-shaped plate at 20 μL/well, and negative control (1% BSA/PBS was added only) was set up simultaneously. The suspension of human CD73-expressing cells (CHOK1-huCD73-3F4, Huabo Biopharm) in the logarithmic growth phase were collected and centrifuged at 1000 rpm for 5 min, and the culture medium was discarded; then the cells were resuspended with 1% BSA/PBS to a viable cell density of 1×10⁶/mL, and then added into the 96-well U-shaped plate already added with anti-CD73 antigen-binding protein at 20 μL (2×10⁴ cells)/well for reaction at room temperature for 30 min. […] After the reaction, the cells in the 96-well U-shaped plate were resuspended with 1% BSA/PBS and centrifuged at 300 g for 3 min and the supernatant was discarded; after washing in this manner 3 times, and the cells were finally resuspended with 1% BSA/PBS at 100 μL/well, and the fluorescence intensity of the PE channel was measured with a flow cytometer (BD, #Canto II).

[4] = target: T4, monkey CD73 (Novoprotein, Cat No. C121) (monkey, UniProt A0A2K5V5U7 27-549); test: SPR (Biacore T200), antibody captured on protein A chip, CD73 as analyte, 1:1 model
T4 construct: Bought protein; also called monkey CD73 protein
T4 sequence: T3 sequence with M199T, T350A, V466I
Procedure: as §1

B1: 900581 (antibody, human IgG1, V domains shown)
VH: EVQLVESGGGLVKPGGSLKLSCAASGFTFSKYAMSWVRQSPEKRLEWVAEISSGGGYINYPDTVTGRFTISRDNAKNTLYLEMSSLRSGDTAMYYCARAIYYYGSSYNYYAMDYWGQGTSVTVSS
VL: DIVMTQSHKFMSTSVGDRVSITCKASQDVGTAEAWYQQKPGQSPKLLIYWASTRHTGVPDRFTGSGSGTDFTLTIGNVQSEDLADYFCQQYSSYPLTFGGGTKLEIK
[1]
  EC50(µg/mL), inhibition of recombinant CD73 (CellTiter-Glo): 0.262 µg/mL
[2]
  binding result: no binding (tested: up to 50 nM analyte)
[3]
  EC50: 0.347 µg/mL
[4]
  Kd: 1.05 nM
  koff: 0.000358 s⁻¹
  kon: 349000 M⁻¹ s⁻¹

B2: 900695 (antibody, V domains shown)
VH: QVQLVESGGGLVKPGGSLRLSCAASGFTFSKYAMSWVRQAPGKGLEWVAEISSGGGYINYADSVTGRFTISRDNAKNSLYLQMNSLRAEDTAVYYCARAIYYYGSSYNYYAMDYWGQGTTVTVSS
VL: DIQMTQSPSSLSASVGDRVTITCRASQDVGTAEAWYQQKPGKAPKLLIYWASTRHTGVPSRFSGSGSGTDFTLTISSLQPEDFATYYCQQYSSYPLTFGQGTKLEIK
notes: Constant regions are not restated
[1]
  EC50(µg/mL), inhibition of recombinant CD73 (CellTiter-Glo): 0.746 µg/mL
[2]
  binding result: no binding (tested: up to 50 nM analyte)
[3]
  EC50: 0.594 µg/mL
[4]
  Kd: 0.822 nM
  koff: 0.000148 s⁻¹
  kon: 180000 M⁻¹ s⁻¹

B3: 900696 (antibody, V domains shown)
VH: B2 VH with V37I, T65K
VL: B2 VL with R54L, H55Q, T56S
notes: as for B2
[1]
  EC50(µg/mL), inhibition of recombinant CD73 (CellTiter-Glo): 0.751 µg/mL
[2]
  binding result: no binding (tested: up to 50 nM analyte)
[3]
  EC50: 0.684 µg/mL
[4]
  Kd: 0.604 nM
  koff: 0.000214 s⁻¹
  kon: 354000 M⁻¹ s⁻¹

B4: 900697 (antibody, V domains shown)
VH: B2 VH
VL: B2 VL with R54L, H55Q, T56S
notes: as for B2
[1]
  EC50(µg/mL), inhibition of recombinant CD73 (CellTiter-Glo): 0.585 µg/mL
[2]
  binding result: no binding (tested: up to 50 nM analyte)
[3]
  EC50: 0.518 µg/mL
[4]
  Kd: 2.13 nM
  koff: 0.000137 s⁻¹
  kon: 64100 M⁻¹ s⁻¹

B5: 900698 (antibody, V domains shown)
VH: B2 VH with V37I, T65K
VL: B2 VL
notes: as for B2
[1]
  EC50(µg/mL), inhibition of recombinant CD73 (CellTiter-Glo): 0.588 µg/mL
[2]
  binding result: no binding (tested: up to 50 nM analyte)
[3]
  EC50: 0.688 µg/mL
[4]
  Kd: 1.41 nM
  koff: 0.000115 s⁻¹
  kon: 108000 M⁻¹ s⁻¹
